From paper doi:10.1101/2020.03.11.988071 (bioRxiv, 2020)
Values belong to the binder of their own block, whether it stands above or below them.

Target: T1, 4H.01 (synthetic construct (de novo design))
T1 chain: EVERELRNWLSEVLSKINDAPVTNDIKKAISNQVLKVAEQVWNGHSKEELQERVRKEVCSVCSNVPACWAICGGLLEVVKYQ
Test: SPR

Kd: 200 nM
B1: 2D10 IgG (antibody, V domains shown)
VH: QVQLVQSGPEVKKPGASVRLSCKASGYVFTNYGVSWVRQAPGQGLEWMGWSSPYNGNTYYAQKLKARVTMTTDTSTNTAYMELRSLRSDDTAVYYCGRDMLGVVQAVAGPFDSWGQGTLVTVSS
VL: DTPMTQSPSSVSASVGDRVTISCRASQGISNSLAWYQQKLGKAPQLLIYAASSLQSGVPSRFSGSGSGTDFTLTISSLQPEDFATYYCQQTNTFPFTFGPGTKVEVR

Kd: 0.5 nM
B2: Motavizumab IgG (antibody, V domains shown)
VH: QVTLRESGPALVKPTQTLTLTCTFSGFSLSTAGMSVGWIRQPPGKALEWLADIWWDDKKHYNPSLKDRLTISKDTSKNQVVLKVTNMDPADTATYYCARDMIFNFYFDVWGQGTTVTVSS
VL: DIQMTQSPSTLSASVGDRVTITCSASSRVGYMHWYQQKPGKAPKLLIYDTSKLASGVPSRFSGSGSGTEFTLTISSLQPDDFATYYCFQGSGYPFTFGGGTKVEIK
